{"source": "patent US9364516B2", "about": "“Treatment of fibrosis-related disorders using fibronectin binding proteins and polypeptides” (priority 2010, dated 2016)", "molecular_target": "T1, fibrinogen (Homo sapiens, UniProt P02671+P02675+P02679)", "T1 construct": "purchased Enzyme Research Laboratories (South Bend, Ind.)", "T1 sequence (P02671 20-629 limits assumed)": "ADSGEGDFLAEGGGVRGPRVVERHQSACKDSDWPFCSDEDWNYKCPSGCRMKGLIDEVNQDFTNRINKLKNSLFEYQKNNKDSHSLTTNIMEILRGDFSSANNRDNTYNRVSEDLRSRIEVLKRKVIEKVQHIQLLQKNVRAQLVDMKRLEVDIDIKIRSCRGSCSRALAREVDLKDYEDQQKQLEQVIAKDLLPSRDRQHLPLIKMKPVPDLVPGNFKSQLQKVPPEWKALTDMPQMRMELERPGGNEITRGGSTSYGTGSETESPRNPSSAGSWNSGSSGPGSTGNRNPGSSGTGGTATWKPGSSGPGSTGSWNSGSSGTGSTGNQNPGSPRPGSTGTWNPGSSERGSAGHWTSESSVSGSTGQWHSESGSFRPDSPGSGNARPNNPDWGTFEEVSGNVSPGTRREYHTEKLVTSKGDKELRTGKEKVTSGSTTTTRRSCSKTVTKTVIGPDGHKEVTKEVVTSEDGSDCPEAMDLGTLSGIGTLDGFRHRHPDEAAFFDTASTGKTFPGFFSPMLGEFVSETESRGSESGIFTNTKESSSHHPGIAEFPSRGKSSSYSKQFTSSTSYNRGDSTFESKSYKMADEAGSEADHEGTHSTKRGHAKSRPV", "T1 sequence (P02675 31-491)": "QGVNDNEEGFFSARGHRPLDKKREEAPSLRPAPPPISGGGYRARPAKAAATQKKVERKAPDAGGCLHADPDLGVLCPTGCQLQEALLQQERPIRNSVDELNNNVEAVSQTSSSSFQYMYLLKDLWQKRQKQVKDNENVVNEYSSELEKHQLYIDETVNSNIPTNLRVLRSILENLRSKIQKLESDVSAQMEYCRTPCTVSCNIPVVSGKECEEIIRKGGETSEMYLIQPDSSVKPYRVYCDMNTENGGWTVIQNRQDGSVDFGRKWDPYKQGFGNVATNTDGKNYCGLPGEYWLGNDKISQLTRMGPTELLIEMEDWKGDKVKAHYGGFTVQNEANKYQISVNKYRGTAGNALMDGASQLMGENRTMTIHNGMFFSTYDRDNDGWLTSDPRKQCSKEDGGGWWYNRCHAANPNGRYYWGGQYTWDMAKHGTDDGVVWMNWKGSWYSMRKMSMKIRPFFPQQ", "T1 sequence (P02679 27-453)": "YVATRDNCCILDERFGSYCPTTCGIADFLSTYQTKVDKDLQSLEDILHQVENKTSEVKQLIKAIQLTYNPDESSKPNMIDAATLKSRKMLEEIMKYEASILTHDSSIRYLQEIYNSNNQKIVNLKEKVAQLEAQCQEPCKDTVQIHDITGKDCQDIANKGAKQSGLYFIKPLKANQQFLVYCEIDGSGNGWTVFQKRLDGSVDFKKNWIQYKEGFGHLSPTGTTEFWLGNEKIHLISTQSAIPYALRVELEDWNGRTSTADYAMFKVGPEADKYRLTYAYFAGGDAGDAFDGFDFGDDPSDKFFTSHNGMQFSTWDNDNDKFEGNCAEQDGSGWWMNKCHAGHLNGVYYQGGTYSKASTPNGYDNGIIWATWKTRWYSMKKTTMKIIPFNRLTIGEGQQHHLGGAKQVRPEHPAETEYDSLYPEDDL", "assay": "ELISA binding of pUR4 to ECM proteins: fibrinogen", "settings": "plates coated 10 μg/mL, FIG. 7", "procedure": "FIG. 7 is a graph depicting the binding of pUR4 to ECM Proteins. 96-well plates were coated with 10 μg/mL type I collagen (COL), denatured type I collagen (dCOL), fibronectin (FN), laminin (LN), vitronectin (VN), or fibrinogen (FG) at 4° C. overnight. pUR4 was added to the wells and serially diluted. Bound pUR4 was detected as described herein. Measurements were done at 405 nm on a Wallac 1420 multilabel counter. Data represents the average of duplicate determinations, and the error bars the range.\n96-well tissue culture plates were coated with 10 μg/mL type I collagen, fibronectin, laminin, fibrinogen, or vitronectin overnight at 4° C. Denatured collagens were generated as described (George et al., “Fibronectins are Essential for Heart and Blood Vessel Morphogenesis but are Dispensable for Initial Specification of Precursor Cells,” Blood 90:3073-3081 (1997), which is hereby incorporated by reference in its entirety). Plates were blocked with 1% bovine serum albumin (BSA) in Tris buffered saline (TBS) for 1 hour, then washed with TBS. pUR4 was serially diluted into coated wells, then incubated at room temperature for 90 min. Wells were washed with TBS containing 0.1% Tween 20. […] After washing, peroxidase activity was quantified by using 2,2′-azino-bis-(3-ethylbenthiazoline-[…]). […]", "data": [{"molecule": "pUR4: 49-mer peptide derived from the bacterial F1 adhesin, His tagged, SEQ ID NO:1; class I fibronectin polymerization inhibitor (His tag; Bacterial adhesin derived peptide pUR4) MRGSHHHHHHGSKDQSPLAGESGETEYITEVYGNQQNPVDIDKKLPNETGFSGNMVETEDTKLN", "values": [{"measurement": "binding to fibrinogen", "value": "does not bind"}]}]}
